According to patent publication US20230041134A1 (Genentech, published 2023):

Columns and labels:
[1] = target: T1, Her2 extracellular domain (Her2 ECD) (human, UniProt P04626 23-652); assay: SPR (BIAcore T100), IgG, 1:1 Langmuir fit
T1 construct: For the crystal structure it was expressed in CHO cells and the complex was enzymatically deglycosylated; also called biotinylated Her2 ECD
Description: (§1) The affinity of each 7C2 IgG variant for Her2 was determined by surface plasmon resonance using a BIAcoreT100. Biacore Series S CMS sensor chips were immobilized with monoclonal mouse anti-human IgG (Fc) antibody (Human antibody capture kit, GE Healthcare). Serial 3-fold dilutions of each 7C2 variant were injected at a flow rate of 30 μl/min. Each sample was analyzed with 3-minute association and 10-minute dissociation. After each injection the chip was regenerated using 3 M MgCl₂. Binding response was corrected by subtracting the RU from a flow cell capturing an irrelevant IgG at similar density. A 1:1 Languir model of simultaneous fitting of kₒₙ and koff was used for kinetics analysis.

[2] = target: T1, Her2 extracellular domain (Her2 ECD); assay: SPR (BIAcore T100), IgG on anti-human IgG (Fc) capture chip, Her2 ECD, 1:1 Langmuir fit
Description: as §1

[3] = target: T1, Her2 extracellular domain (Her2 ECD); assay: SPR (BIAcore T100), IgG, 1:1 Langmuir fit; remark: listed apart in the source
Description: as §1

Binder	Kd [2] [nM]	Kd [3] [nM]	other results
7C2.v2.1 (antibody, V domains shown, Expressed as IgG for SPR; also called hu7C2.v2.1) VH: EVQLVQSGAEVKKPGASVKVSCKASGYSFTGYWMNWVRQAPGQGLEWIGMIHPSDSEIRANQKFRDRVTITRDTSTSTAYLELSSLRSEDTAVYYCARGTYDGGFEYWGQGTLVTVSS VL: DIVMTQSPDSLAVSLGERATINCRASQSVSGSRFTYMHWYQQKPGQPPKLLIKYASILESGVPDRFSGSGSGTDFTLTISSLQAEDVAVYYCQHSWEIPPWTFGQGTKVEIK	16	–	Kd [1]: 15.5 nM; koff [1]: 0.0041 s⁻¹; kon [1]: 260000 M⁻¹ s⁻¹
7C2.v3.3 (antibody, V domains shown) VH: EVQLVQSGAEVKKPGASVKVSCKASGYSFTGYWMNWLRQAPGQGLEWIGMIHPSDSEIRANQKFRDRATLTVDKSTSTAYLELSSLRSEDTAVYYCARGTYDGGFEYWGQGTLVTVSS VL: DIVLTQSPDSLAVSLGERATINCRASQSVSGSRFTYMHWYQQKPGQPPKLLIKYASILESGVPDRFSGSGSGTDFTLTISSLQAEDVAVYYCQHSWEIPPWTFGQGTKVEIK	9	–	–
7C2.v1.2 (antibody, V domains shown) VH: EVQLVQSGAEVKKPGASVKVSCKASGYSFTGYWMNWVRQAPGQGLEWIGMIHPSDSEIRANQKFRDRVTITVDTSTSTAYLELSSLRSEDTAVYYCARGTYDGGFEYWGQGTLVTVSS VL: DIVMTQSPDSLAVSLGERATINCRASQSVSGSRFTYMHWYQQKPGQPPKLLIYYASILESGVPDRFSGSGSGTDFTLTISSLQAEDVAVYYCQHSWEIPPWTFGQGTKVEIK	13	–	–
hu7C2.v2.2.LA (antibody, human IgG1, kappa, V domains shown, IgG1 kappa; Measured as IgG by SPR; also called humanized 7C2.v2.2.LA; hu7C2.v2.2.LA (S53L, S55A)) VH: EVQLVQSGAEVKKPGASVKVSCKASGYSFTGYWMNWVRQAPGQGLEWIGMIHPLDAEIRANQKFRDRVTITVDTSTSTAYLELSSLRSEDTAVYYCARGTYDGGFEYWGQGTLVTVSS VL: DIVMTQSPDSLAVSLGERATINCRASQSVSGSRFTYMHWYQQKPGQPPKLLIKYASILESGVPDRFSGSGSGTDFTLTISSLQAEDVAVYYCQHSWEIPPWTFGQGTKVEIKR	–	3	–
7C2.v1.3 (antibody, V domains shown) VH: EVQLVQSGAEVKKPGASVKVSCKASGYSFTGYWMNWLRQAPGQGLEWIGMIHPSDSEIRANQKFRDRATLTVDKSTSTAYLELSSLRSEDTAVYYCARGTYDGGFEYWGQGTLVTVSS VL: DIVMTQSPDSLAVSLGERATINCRASQSVSGSRFTYMHWYQQKPGQPPKLLIYYASILESGVPDRFSGSGSGTDFTLTISSLQAEDVAVYYCQHSWEIPPWTFGQGTKVEIK	11	–	–
7C2.v2.3 (antibody, V domains shown) VH: EVQLVQSGAEVKKPGASVKVSCKASGYSFTGYWMNWLRQAPGQGLEWIGMIHPSDSEIRANQKFRDRATLTVDKSTSTAYLELSSLRSEDTAVYYCARGTYDGGFEYWGQGTLVTVSS VL: DIVMTQSPDSLAVSLGERATINCRASQSVSGSRFTYMHWYQQKPGQPPKLLIKYASILESGVPDRFSGSGSGTDFTLTISSLQAEDVAVYYCQHSWEIPPWTFGQGTKVEIK	10	–	–
7C2.v3.1 (antibody, V domains shown, Expressed as IgG) VH: EVQLVQSGAEVKKPGASVKVSCKASGYSFTGYWMNWVRQAPGQGLEWIGMIHPSDSEIRANQKFRDRVTITRDTSTSTAYLELSSLRSEDTAVYYCARGTYDGGFEYWGQGTLVTVSS VL: DIVLTQSPDSLAVSLGERATINCRASQSVSGSRFTYMHWYQQKPGQPPKLLIKYASILESGVPDRFSGSGSGTDFTLTISSLQAEDVAVYYCQHSWEIPPWTFGQGTKVEIK	15	–	–
hu7C2.v2.2 (antibody, V domains shown, Expressed as IgG; It is the parent of hu7C2.v2.2.LA, which adds S53L and S55A in HVR-H2) VH: EVQLVQSGAEVKKPGASVKVSCKASGYSFTGYWMNWVRQAPGQGLEWIGMIHPSDSEIRANQKFRDRVTITVDTSTSTAYLELSSLRSEDTAVYYCARGTYDGGFEYWGQGTLVTVSS VL: DIVMTQSPDSLAVSLGERATINCRASQSVSGSRFTYMHWYQQKPGQPPKLLIKYASILESGVPDRFSGSGSGTDFTLTISSLQAEDVAVYYCQHSWEIPPWTFGQGTKVEIK	11	11	–
mu7C2.B9 (antibody, V domains shown, Assessed as IgG by SPR on an anti-human IgG (Fc) capture chip; also called murine 7C2.B9; chimeric mu7C2.B9) VH: QVQLQQPGAELVRPGASVKLSCKASGYSFTGYWMNWLKQRPGQGLEWIGMIHPSDSEIRANQKFRDKATLTVDKSSTTAYMQLSSPTSEDSAVYYCARGTYDGGFEYWGQGTTLTVSS VL: DIVLTQSPASLVVSLGQRATISCRASQSVSGSRFTYMHWYQQKPGQPPKLLIKYASILESGVPARFSGGGSGTDFTLNIHPVEEDDTATYYCQHSWEIPPWTFGGGTKLEIK	–	8	–
